Source: paper PMC4036362, “Normal Activation of Discoidin Domain Receptor 1 Mutants with Disulfide Cross-links, Insertions, or Deletions in the Extracellular Juxtamembrane Region” (The Journal of Biological Chemistry, 2014)

B1: DDR1 residue 415 to cysteine (in the C287S background) (receptor, human, UniProt Q08345 19-913, looked up)
chain: DADMKGHFDPAKCRYALGMQDRTIPDSDISASSSWSDSTAARHSRLESSDGDGAWCPAGSVFPKEEEYLQVDLQRLHLVALVGTQGRHAGGLGKEFSRSYRLRYSRDGRRWMGWKDRWGQEVISGNEDPEGVVLKDLGPPMVARLVRFYPRADRVMSVCLRVELYGCLWRDGLLSYTAPVGQTMYLSEAVYLNDSTYDGHTVGGLQYGGLGQLADGVVGLDDFRKSQELRVWPGYDYVGWSNHSFSSGYVEMEFEFDRLRAFQAMQVHSNNMHTLGARLPGGVECRFRRGPAMAWEGEPMRHNLGGNLGDPRARAVSVPLGGRVARFLQCRFLFAGPWLLFSEISFISDVVNNSSPALGGTFPPAPWWPPGPPPTNFSSLELEPRGQQPVAKAEGSCTAILIGCLVAIILLLLLIIALMLWRLHWRRLLSKAERRVLEEELTVHLSVPGDTILINNRPGPREPPPYQEPRPRGNPPHSAPCVPNGSALLLSNPAYRLLLATYARPPRGPGPPTPAWAKPTNTQAYSGDYMEPEKPGAPLLPPPPQNSVPHYAEADIVTLQGVTGGNTYAVPALPPGAVGDGPPRVDFPRSRLRFKEKLGEGQFGEVHLCEVDSPQDLVSLDFPLNVRKGHPLLVAVKILRPDATKNARNDFLKEVKIMSRLKDPNIIRLLGVCVQDDPLCMITDYMENGDLNQFLSAHQLEDKAAEGAPGDGQAAQGPTISYPMLLHVAAQIASGMRYLATLNFVHRDLATRNCLVGENFTIKIADFGMSRNLYAGDYYRVQGRAVLPIRWMAWECILMGKFTTASDVWAFGVTLWEVLMLCRAQPFGQLTDEQVIENAGEFFRDQGRQVYLSRPPACPQGLYELMLRCWSRESEQRPPFSQLHRFLAEDALNTV
notes: discoidin domain receptor 1, isoform DDR1b, human; full-length cDNA in pRK5; The text gives only the range V408C to A417C (10 single mutants); also called one of the 10 mutants V408C to A417C; source: HEK293, transiently transfected, in lysate
B2: DDR1 residue 420 to cysteine (in the C287S background) (receptor, human, UniProt Q08345 19-913, looked up)
chain: DADMKGHFDPAKCRYALGMQDRTIPDSDISASSSWSDSTAARHSRLESSDGDGAWCPAGSVFPKEEEYLQVDLQRLHLVALVGTQGRHAGGLGKEFSRSYRLRYSRDGRRWMGWKDRWGQEVISGNEDPEGVVLKDLGPPMVARLVRFYPRADRVMSVCLRVELYGCLWRDGLLSYTAPVGQTMYLSEAVYLNDSTYDGHTVGGLQYGGLGQLADGVVGLDDFRKSQELRVWPGYDYVGWSNHSFSSGYVEMEFEFDRLRAFQAMQVHSNNMHTLGARLPGGVECRFRRGPAMAWEGEPMRHNLGGNLGDPRARAVSVPLGGRVARFLQCRFLFAGPWLLFSEISFISDVVNNSSPALGGTFPPAPWWPPGPPPTNFSSLELEPRGQQPVAKAEGSPTAILCGCLVAIILLLLLIIALMLWRLHWRRLLSKAERRVLEEELTVHLSVPGDTILINNRPGPREPPPYQEPRPRGNPPHSAPCVPNGSALLLSNPAYRLLLATYARPPRGPGPPTPAWAKPTNTQAYSGDYMEPEKPGAPLLPPPPQNSVPHYAEADIVTLQGVTGGNTYAVPALPPGAVGDGPPRVDFPRSRLRFKEKLGEGQFGEVHLCEVDSPQDLVSLDFPLNVRKGHPLLVAVKILRPDATKNARNDFLKEVKIMSRLKDPNIIRLLGVCVQDDPLCMITDYMENGDLNQFLSAHQLEDKAAEGAPGDGQAAQGPTISYPMLLHVAAQIASGMRYLATLNFVHRDLATRNCLVGENFTIKIADFGMSRNLYAGDYYRVQGRAVLPIRWMAWECILMGKFTTASDVWAFGVTLWEVLMLCRAQPFGQLTDEQVIENAGEFFRDQGRQVYLSRPPACPQGLYELMLRCWSRESEQRPPFSQLHRFLAEDALNTV
notes: discoidin domain receptor 1, isoform DDR1b, human; full-length cDNA in pRK5; also called TM cysteine mutant, residue 420; source: HEK293, transiently transfected, in lysate
B3: DDR1 residue 418 to cysteine (in the C287S background) (receptor, human, UniProt Q08345 19-913, looked up)
chain: DADMKGHFDPAKCRYALGMQDRTIPDSDISASSSWSDSTAARHSRLESSDGDGAWCPAGSVFPKEEEYLQVDLQRLHLVALVGTQGRHAGGLGKEFSRSYRLRYSRDGRRWMGWKDRWGQEVISGNEDPEGVVLKDLGPPMVARLVRFYPRADRVMSVCLRVELYGCLWRDGLLSYTAPVGQTMYLSEAVYLNDSTYDGHTVGGLQYGGLGQLADGVVGLDDFRKSQELRVWPGYDYVGWSNHSFSSGYVEMEFEFDRLRAFQAMQVHSNNMHTLGARLPGGVECRFRRGPAMAWEGEPMRHNLGGNLGDPRARAVSVPLGGRVARFLQCRFLFAGPWLLFSEISFISDVVNNSSPALGGTFPPAPWWPPGPPPTNFSSLELEPRGQQPVAKAEGSPTACLIGCLVAIILLLLLIIALMLWRLHWRRLLSKAERRVLEEELTVHLSVPGDTILINNRPGPREPPPYQEPRPRGNPPHSAPCVPNGSALLLSNPAYRLLLATYARPPRGPGPPTPAWAKPTNTQAYSGDYMEPEKPGAPLLPPPPQNSVPHYAEADIVTLQGVTGGNTYAVPALPPGAVGDGPPRVDFPRSRLRFKEKLGEGQFGEVHLCEVDSPQDLVSLDFPLNVRKGHPLLVAVKILRPDATKNARNDFLKEVKIMSRLKDPNIIRLLGVCVQDDPLCMITDYMENGDLNQFLSAHQLEDKAAEGAPGDGQAAQGPTISYPMLLHVAAQIASGMRYLATLNFVHRDLATRNCLVGENFTIKIADFGMSRNLYAGDYYRVQGRAVLPIRWMAWECILMGKFTTASDVWAFGVTLWEVLMLCRAQPFGQLTDEQVIENAGEFFRDQGRQVYLSRPPACPQGLYELMLRCWSRESEQRPPFSQLHRFLAEDALNTV
notes: discoidin domain receptor 1, isoform DDR1b, human; full-length cDNA in pRK5; source: HEK293, transiently transfected, in lysate
B4: DDR1 A417C (in the C287S background) (receptor, human, UniProt Q08345 19-913, looked up)
chain: DADMKGHFDPAKCRYALGMQDRTIPDSDISASSSWSDSTAARHSRLESSDGDGAWCPAGSVFPKEEEYLQVDLQRLHLVALVGTQGRHAGGLGKEFSRSYRLRYSRDGRRWMGWKDRWGQEVISGNEDPEGVVLKDLGPPMVARLVRFYPRADRVMSVCLRVELYGCLWRDGLLSYTAPVGQTMYLSEAVYLNDSTYDGHTVGGLQYGGLGQLADGVVGLDDFRKSQELRVWPGYDYVGWSNHSFSSGYVEMEFEFDRLRAFQAMQVHSNNMHTLGARLPGGVECRFRRGPAMAWEGEPMRHNLGGNLGDPRARAVSVPLGGRVARFLQCRFLFAGPWLLFSEISFISDVVNNSSPALGGTFPPAPWWPPGPPPTNFSSLELEPRGQQPVAKAEGSPTCILIGCLVAIILLLLLIIALMLWRLHWRRLLSKAERRVLEEELTVHLSVPGDTILINNRPGPREPPPYQEPRPRGNPPHSAPCVPNGSALLLSNPAYRLLLATYARPPRGPGPPTPAWAKPTNTQAYSGDYMEPEKPGAPLLPPPPQNSVPHYAEADIVTLQGVTGGNTYAVPALPPGAVGDGPPRVDFPRSRLRFKEKLGEGQFGEVHLCEVDSPQDLVSLDFPLNVRKGHPLLVAVKILRPDATKNARNDFLKEVKIMSRLKDPNIIRLLGVCVQDDPLCMITDYMENGDLNQFLSAHQLEDKAAEGAPGDGQAAQGPTISYPMLLHVAAQIASGMRYLATLNFVHRDLATRNCLVGENFTIKIADFGMSRNLYAGDYYRVQGRAVLPIRWMAWECILMGKFTTASDVWAFGVTLWEVLMLCRAQPFGQLTDEQVIENAGEFFRDQGRQVYLSRPPACPQGLYELMLRCWSRESEQRPPFSQLHRFLAEDALNTV
notes: as for B3
B5: DDR1 residue 419 to cysteine (in the C287S background) (receptor, human, UniProt Q08345 19-913, looked up)
chain: DADMKGHFDPAKCRYALGMQDRTIPDSDISASSSWSDSTAARHSRLESSDGDGAWCPAGSVFPKEEEYLQVDLQRLHLVALVGTQGRHAGGLGKEFSRSYRLRYSRDGRRWMGWKDRWGQEVISGNEDPEGVVLKDLGPPMVARLVRFYPRADRVMSVCLRVELYGCLWRDGLLSYTAPVGQTMYLSEAVYLNDSTYDGHTVGGLQYGGLGQLADGVVGLDDFRKSQELRVWPGYDYVGWSNHSFSSGYVEMEFEFDRLRAFQAMQVHSNNMHTLGARLPGGVECRFRRGPAMAWEGEPMRHNLGGNLGDPRARAVSVPLGGRVARFLQCRFLFAGPWLLFSEISFISDVVNNSSPALGGTFPPAPWWPPGPPPTNFSSLELEPRGQQPVAKAEGSPTAICIGCLVAIILLLLLIIALMLWRLHWRRLLSKAERRVLEEELTVHLSVPGDTILINNRPGPREPPPYQEPRPRGNPPHSAPCVPNGSALLLSNPAYRLLLATYARPPRGPGPPTPAWAKPTNTQAYSGDYMEPEKPGAPLLPPPPQNSVPHYAEADIVTLQGVTGGNTYAVPALPPGAVGDGPPRVDFPRSRLRFKEKLGEGQFGEVHLCEVDSPQDLVSLDFPLNVRKGHPLLVAVKILRPDATKNARNDFLKEVKIMSRLKDPNIIRLLGVCVQDDPLCMITDYMENGDLNQFLSAHQLEDKAAEGAPGDGQAAQGPTISYPMLLHVAAQIASGMRYLATLNFVHRDLATRNCLVGENFTIKIADFGMSRNLYAGDYYRVQGRAVLPIRWMAWECILMGKFTTASDVWAFGVTLWEVLMLCRAQPFGQLTDEQVIENAGEFFRDQGRQVYLSRPPACPQGLYELMLRCWSRESEQRPPFSQLHRFLAEDALNTV
notes: discoidin domain receptor 1, isoform DDR1b, human; full-length cDNA in pRK5; also called TM cysteine mutant, residue 419; source: HEK293, transiently transfected, in lysate
B6: DDR1 G421C (in the C287S background) (receptor, human, UniProt Q08345 19-913, looked up)
chain: DADMKGHFDPAKCRYALGMQDRTIPDSDISASSSWSDSTAARHSRLESSDGDGAWCPAGSVFPKEEEYLQVDLQRLHLVALVGTQGRHAGGLGKEFSRSYRLRYSRDGRRWMGWKDRWGQEVISGNEDPEGVVLKDLGPPMVARLVRFYPRADRVMSVCLRVELYGCLWRDGLLSYTAPVGQTMYLSEAVYLNDSTYDGHTVGGLQYGGLGQLADGVVGLDDFRKSQELRVWPGYDYVGWSNHSFSSGYVEMEFEFDRLRAFQAMQVHSNNMHTLGARLPGGVECRFRRGPAMAWEGEPMRHNLGGNLGDPRARAVSVPLGGRVARFLQCRFLFAGPWLLFSEISFISDVVNNSSPALGGTFPPAPWWPPGPPPTNFSSLELEPRGQQPVAKAEGSPTAILICCLVAIILLLLLIIALMLWRLHWRRLLSKAERRVLEEELTVHLSVPGDTILINNRPGPREPPPYQEPRPRGNPPHSAPCVPNGSALLLSNPAYRLLLATYARPPRGPGPPTPAWAKPTNTQAYSGDYMEPEKPGAPLLPPPPQNSVPHYAEADIVTLQGVTGGNTYAVPALPPGAVGDGPPRVDFPRSRLRFKEKLGEGQFGEVHLCEVDSPQDLVSLDFPLNVRKGHPLLVAVKILRPDATKNARNDFLKEVKIMSRLKDPNIIRLLGVCVQDDPLCMITDYMENGDLNQFLSAHQLEDKAAEGAPGDGQAAQGPTISYPMLLHVAAQIASGMRYLATLNFVHRDLATRNCLVGENFTIKIADFGMSRNLYAGDYYRVQGRAVLPIRWMAWECILMGKFTTASDVWAFGVTLWEVLMLCRAQPFGQLTDEQVIENAGEFFRDQGRQVYLSRPPACPQGLYELMLRCWSRESEQRPPFSQLHRFLAEDALNTV
notes: as for B3

Molecular target: the molecule itself
Assay: cross-linking; disulfide cross-linking of introduced cysteines in transiently transfected HEK293 cells, untreated or with 10 ug/ml collagen I for 90 min at 37 °C; lysis in 1% Nonidet P-40 buffer with NEM; nonreducing SDS-PAGE on 5% gels, Western blot with anti-DDR1; efficiency as percent dimeric of total DDR1

Protein | dimerization efficiency (percent dimeric of total DDR1) [%] | stoichiometry N
B1 | > 70 | –
B2 | – | ~4
B3 | – | ~4
B4 | – | ~4
B5 | – | ~4
B6 | – | ~4
